# Experimental data reported in patent US20260242735A1 (UNIVERSIT T BASEL, published 2026).
# What was measured:
# Test in all cases: alanine scan, flow cytometry, HEK293-T;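 also: antibody binding to each alanine-substituted CD33 mutant expressed transiently in HEK293-T, read as fluorescence minus background, mean of duplicates, relative to wild-type CD33 set as 100%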
# [1] = target: human CD33 L180A (human, UniProt P20138 18-364)
# [2] = target: human CD33 P184A (human, UniProt P20138 18-364)
# [3] = target: human CD33 R190A (human, UniProt P20138 18-364)
# Sequence of human CD33 R190A (P20138 18-364 R190A limits assumed): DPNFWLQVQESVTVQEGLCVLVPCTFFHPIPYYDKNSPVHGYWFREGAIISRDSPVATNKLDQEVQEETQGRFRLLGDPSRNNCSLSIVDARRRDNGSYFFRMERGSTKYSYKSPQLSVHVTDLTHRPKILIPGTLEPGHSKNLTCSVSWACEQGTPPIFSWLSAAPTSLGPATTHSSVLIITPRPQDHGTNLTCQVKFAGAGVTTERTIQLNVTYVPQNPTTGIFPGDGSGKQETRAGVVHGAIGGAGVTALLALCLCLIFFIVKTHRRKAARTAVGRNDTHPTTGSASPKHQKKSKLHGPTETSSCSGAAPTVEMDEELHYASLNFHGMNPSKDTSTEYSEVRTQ
# [4] = target: human CD33 L197A (human, UniProt P20138 18-364)
# Sequence of human CD33 L197A (P20138 18-364 L197A limits assumed): as the sequence (P20138 18-364 R190A limits assumed) above, with A173R, L180A counted along it
# [5] = target: human CD33 T239A (human, UniProt P20138 18-364)
# Sequence of human CD33 T239A (P20138 18-364 T239A limits assumed): as the sequence (P20138 18-364 R190A limits assumed) above, with A173R, T222A counted along it
# [6] = target: human CD33 F177A (human, UniProt P20138 18-364)
# Sequence of human CD33 F177A (P20138 18-364 F177A limits assumed): as the sequence (P20138 18-364 R190A limits assumed) above, with F160A, A173R counted along it
# [7] = target: human CD33 H206A (human, UniProt P20138 18-364)
# Sequence of human CD33 H206A (P20138 18-364 H206A limits assumed): as the sequence (P20138 18-364 R190A limits assumed) above, with A173R, H189A counted along it
# [8] = target: human CD33 W179A (human, UniProt P20138 18-364)
# Sequence of human CD33 W179A (P20138 18-364 W179A limits assumed): as the sequence (P20138 18-364 R190A limits assumed) above, with W162A, A173R counted along it
# [9] = target: human CD33 T223A (human, UniProt P20138 18-364)
# Sequence of human CD33 T223A (P20138 18-364 T223A limits assumed): as the sequence (P20138 18-364 R190A limits assumed) above, with A173R, T206A counted along it
# [10] = target: human CD33 T222A (human, UniProt P20138 18-364)
# Sequence of human CD33 T222A (P20138 18-364 T222A limits assumed): as the sequence (P20138 18-364 R190A limits assumed) above, with A173R, T205A counted along it
# [11] = target: human CD33 T232A (human, UniProt P20138 18-364)
# Sequence of human CD33 T232A (P20138 18-364 T232A limits assumed): as the sequence (P20138 18-364 R190A limits assumed) above, with A173R, T215A counted along it
# [12] = target: human CD33 P189A (human, UniProt P20138 18-364)
# Sequence of human CD33 P189A (P20138 18-364 P189A limits assumed): as the sequence (P20138 18-364 R190A limits assumed) above, with P172A, A173R counted along it
# [13] = target: human CD33 A217S (human, UniProt P20138 18-364)
# Sequence of human CD33 A217S (P20138 18-364 A217S limits assumed): as the sequence (P20138 18-364 R190A limits assumed) above, with A173R, A200S counted along it
# [14] = target: human CD33 V214A (human, UniProt P20138 18-364)
# Sequence of human CD33 V214A (P20138 18-364 V214A limits assumed): as the sequence (P20138 18-364 R190A limits assumed) above, with A173R, V197A counted along it
# [15] = target: human CD33 I262A (human, UniProt P20138 18-364)
# Sequence of human CD33 I262A (P20138 18-364 I262A limits assumed): as the sequence (P20138 18-364 R190A limits assumed) above, with A173R, I245A counted along it
# [16] = target: human CD33 S307A (human, UniProt P20138 18-364)
# Sequence of human CD33 S307A (P20138 18-364 S307A limits assumed): as the sequence (P20138 18-364 R190A limits assumed) above, with A173R, S290A counted along it
# [17] = target: human CD33 H317A (human, UniProt P20138 18-364)
# Sequence of human CD33 H317A (P20138 18-364 H317A limits assumed): as the sequence (P20138 18-364 R190A limits assumed) above, with A173R, H300A counted along it
# [18] = target: human CD33 K288A (human, UniProt P20138 18-364)
# Sequence of human CD33 K288A (P20138 18-364 K288A limits assumed): as the sequence (P20138 18-364 R190A limits assumed) above, with A173R, K271A counted along it
# [19] = target: human CD33 P244A (human, UniProt P20138 18-364)
# Sequence of human CD33 P244A (P20138 18-364 P244A limits assumed): as the sequence (P20138 18-364 R190A limits assumed) above, with A173R, P227A counted along it
# [20] = target: human CD33 H300A (human, UniProt P20138 18-364)
# Sequence of human CD33 H300A (P20138 18-364 H300A limits assumed): as the sequence (P20138 18-364 R190A limits assumed) above, with A173R, H283A counted along it
# [21] = target: human CD33 A290S (human, UniProt P20138 18-364)
# Sequence of human CD33 A290S (P20138 18-364 A290S limits assumed): as the sequence (P20138 18-364 R190A limits assumed) above, with A173R, A273S counted along it
# [22] = target: human CD33 S305A (human, UniProt P20138 18-364)
# Sequence of human CD33 S305A (P20138 18-364 S305A limits assumed): as the sequence (P20138 18-364 R190A limits assumed) above, with A173R, S288A counted along it
# [23] = target: human CD33 F280A (human, UniProt P20138 18-364)
# Sequence of human CD33 F280A (P20138 18-364 F280A limits assumed): as the sequence (P20138 18-364 R190A limits assumed) above, with A173R, F263A counted along it
# [24] = target: human CD33 G304A (human, UniProt P20138 18-364)
# Sequence of human CD33 G304A (P20138 18-364 G304A limits assumed): as the sequence (P20138 18-364 R190A limits assumed) above, with A173R, G287A counted along it
# [25] = target: human CD33 H259A (human, UniProt P20138 18-364)
# Sequence of human CD33 H259A (P20138 18-364 H259A limits assumed): as the sequence (P20138 18-364 R190A limits assumed) above, with A173R, H242A counted along it
# [26] = target: human CD33 K315A (human, UniProt P20138 18-364)
# Sequence of human CD33 K315A (P20138 18-364 K315A limits assumed): as the sequence (P20138 18-364 R190A limits assumed) above, with A173R, K298A counted along it
# [27] = target: human CD33 G247A (human, UniProt P20138 18-364)
# Sequence of human CD33 G247A (P20138 18-364 G247A limits assumed): as the sequence (P20138 18-364 R190A limits assumed) above, with A173R, G230A counted along it
# [28] = target: human CD33 A265S (human, UniProt P20138 18-364)
# Sequence of human CD33 A265S (P20138 18-364 A265S limits assumed): as the sequence (P20138 18-364 R190A limits assumed) above, with A173R, A248S counted along it
# [29] = target: human CD33 T302A (human, UniProt P20138 18-364)
# Sequence of human CD33 T302A (P20138 18-364 T302A limits assumed): as the sequence (P20138 18-364 R190A limits assumed) above, with A173R, T285A counted along it
# [30] = target: human CD33 R296A (human, UniProt P20138 18-364)
# Sequence of human CD33 R296A (P20138 18-364 R296A limits assumed): as the sequence (P20138 18-364 R190A limits assumed) above, with A173R, R279A counted along it
# [31] = target: human CD33 T303A (human, UniProt P20138 18-364)
# Sequence of human CD33 T303A (P20138 18-364 T303A limits assumed): as the sequence (P20138 18-364 R190A limits assumed) above, with A173R, T286A counted along it
# [32] = target: human CD33 A306S (human, UniProt P20138 18-364)
# Sequence of human CD33 A306S (P20138 18-364 A306S limits assumed): as the sequence (P20138 18-364 R190A limits assumed) above, with A173R, A289S counted along it
# Sequence of human CD33 P184A (P20138 18-364 P184A limits assumed): as the sequence (P20138 18-364 R190A limits assumed) above, with P167A, A173R counted along it
# Sequence of human CD33 L180A (P20138 18-364 L180A limits assumed): as the sequence (P20138 18-364 R190A limits assumed) above, with L163A, A173R counted along it
Binder,Mean % WT Binding [1],Mean % WT Binding [2],Mean % WT Binding [3],Mean % WT Binding [4],Mean % WT Binding [5],Mean % WT Binding [6],Mean % WT Binding [7],Mean % WT Binding [8],Mean % WT Binding [9],Mean % WT Binding [10],Mean % WT Binding [11],Mean % WT Binding [12],Mean % WT Binding [13],Mean % WT Binding [14],Mean % WT Binding [15],Mean % WT Binding [16],Mean % WT Binding [17],Mean % WT Binding [18],Mean % WT Binding [19],Mean % WT Binding [20],further results
"Refmab #1 (antibody, V domains shown, In the alanine scan antibodies were used as IgG or Fab; also called hP67.6) VH: EVQLVQSGAEVKKPGSSVKVSCKASGYTITDSNIHWVRQAPGQSLEWIGYIYPYNGGTDYNQKFKNRATLTVDNPTNTAYMELSSLRSEDTAFYYCVNGNPWLAYWGQGTLVTVSS VL: DIQLTQSPSTLSASVGDRVTITCRASESLDNYGIRFLTWFQQKPGKAPKLLMYAASNQGSGVPSRFSGSGSGTEFTLTISSLQPDDFATYYCQQTKEVPWSFGQGTKVEVK",91.3%,82.9%,96.6%,95.5%,79.7%,68.4%,98.8%,93.5%,103%,88.7%,76.6%,89.2%,80.2%,80.5%,,,,,,,
"Refmab #1 (antibody, V domains shown, The alanine scan used IgG or Fab; also called hP67.6) VH: EVQLVQSGAEVKKPGSSVKVSCKASGYTITDSNIHWVRQAPGQSLEWIGYIYPYNGGTDYNQKFKNRATLTVDNPTNTAYMELSSLRSEDTAFYYCVNGNPWLAYWGQGTLVTVSS VL: DIQLTQSPSTLSASVGDRVTITCRASESLDNYGIRFLTWFQQKPGKAPKLLMYAASNQGSGVPSRFSGSGSGTEFTLTISSLQPDDFATYYCQQTKEVPWSFGQGTKVEVK",,,,,,,,,,,,,,,89.7 % WT binding,94.8 % WT binding,80.8 % WT binding,112 % WT binding,84.3 % WT binding,76.5 % WT binding,Mean % WT Binding [21]: 105 % WT binding; Mean % WT Binding [22]: 86.4 % WT binding; Mean % WT Binding [23]: 98.4 % WT binding; Mean % WT Binding [24]: 104 % WT binding; Mean % WT Binding [25]: 97.4 % WT binding; Mean % WT Binding [26]: 80.6 % WT binding; Mean % WT Binding [27]: 98.5 % WT binding; Mean % WT Binding [28]: 93.2 % WT binding; Mean % WT Binding [29]: 95 % WT binding; Mean % WT Binding [30]: 101 % WT binding; Mean % WT Binding [31]: 94 % WT binding; Mean % WT Binding [32]: 102 % WT binding
"Refmab #3 (antibody, V domains shown, In the alanine scan antibodies were used as IgG or Fab) VH: QVQLVQSGAEVKKPGSSVKVSCKASGYTFTDYNMHWVRQAPGQGLEWIGYIYPYNGGTGYNQKFKSKATITADESTNTAYMELSSLRSEDTAVYYCARGRPAMDYWGQGTLVTVSS VL: DIQMTQSPSSLSASVGDRVTITCRASESVDNYGISFMNWFQQKPGKAPKLLIYAASNQGSGVPSRFSGSGSGTDFTLTISSLQPDDFATYYCQQSKEVPWTFGQGTKVEIK",102%,103%,124%,91.4%,105%,60.4%,97.3%,103%,93.5%,117%,127%,95.5%,148%,102%,,,,,,,
"Refmab #2 (antibody, V domains shown, In the alanine scan antibodies were used as IgG or Fab) VH: QVQLVQSGAEVKKPGSSVKVSCKASGGTFSDYAISWVRQAPGQGLEWMGRIIPILGVADYAQKFQGRVTITADKSTRTAYMELSSLRSEDTAVYYCARNWADAFDIWGQGTMVTVSS VL: DIQLTQSPSSLSASVGDRVTITCRASQGISSVLAWYQQKPGKAPKLLIYDASSLESGVPSRFSGSGSGTDFTLTISSLQPEDFATYYCQQFDSSITFGQGTKLEIK",118%,111%,114%,125%,111%,67.5%,110%,113%,126%,121%,84.8%,116%,109%,118%,,,,,,,
"Refmab #2 (antibody, V domains shown, The alanine scan used IgG or Fab) VH: QVQLVQSGAEVKKPGSSVKVSCKASGGTFSDYAISWVRQAPGQGLEWMGRIIPILGVADYAQKFQGRVTITADKSTRTAYMELSSLRSEDTAVYYCARNWADAFDIWGQGTMVTVSS VL: DIQLTQSPSSLSASVGDRVTITCRASQGISSVLAWYQQKPGKAPKLLIYDASSLESGVPSRFSGSGSGTDFTLTISSLQPEDFATYYCQQFDSSITFGQGTKLEIK",,,,,,,,,,,,,,,115 % WT binding,112 % WT binding,99.8 % WT binding,108 % WT binding,112 % WT binding,98.9 % WT binding,Mean % WT Binding [21]: 120 % WT binding; Mean % WT Binding [22]: 107 % WT binding; Mean % WT Binding [23]: 120 % WT binding; Mean % WT Binding [24]: 111 % WT binding; Mean % WT Binding [25]: 109 % WT binding; Mean % WT Binding [26]: 111 % WT binding; Mean % WT Binding [27]: 110 % WT binding; Mean % WT Binding [28]: 104 % WT binding; Mean % WT Binding [29]: 90.7 % WT binding; Mean % WT Binding [30]: 111 % WT binding; Mean % WT Binding [31]: 96.7 % WT binding; Mean % WT Binding [32]: 85.1 % WT binding
"Refmab #4 (antibody, V domains shown, In the alanine scan antibodies were used as IgG or Fab) VH: QVQLVQSGAEVKKPGESVKVSCKASGYTFTNYGMNWVKQAPGQGLEWMGWINTYTGEPTYADKFQGRVTMTTDTSTSTAYMEIRNLGGDDTAVYYCARWSWSDGYYVYFDYWGQGTSVTVSS VL: DIVMTQSPDSLTVSLGERTTINCKSSQSVLDSSTNKNSLAWYQQKPGQPPKLLLSWASTRESGIPDRFSGSGSGTDFTLTIDSPQPEDSATYYCQQSAHFPITFGQGTRLEIK",101%,79.4%,109%,95.3%,102%,25.4%,97.7%,83.1%,106%,109%,57.4%,98.2%,61.1%,101%,,,,,,,
